Article PMC11029812, “Liver-targeted polymeric prodrugs delivered subcutaneously improve tafenoquine therapeutic window for malaria radical cure” (Science Advances, 2024)

Assay: Tissue pharmacokinetics of released TQ and its metabolites in liver, plasma and urine (LC-MS/MS)
Format: in vivo, BALB/c mice
Details: mouse, in vivo

p(GalNAc-MA-co-SVCTQ-MA) [pSVCTQ]
AUC, liver (iv, 25 mg/kg): 2550 μg/g liver*hour
AUC, plasma (iv, 25 mg/kg): 15.53 μg/ml plasma* hour
Cmax, liver (iv, 25 mg/kg): 57 μg/g liver
Cmax, plasma (iv, 25 mg/kg): 0.20 μg/ml plasma
Liver:plasma AUC ratio (iv, 25 mg/kg): 164
Tmax, liver (iv, 25 mg/kg): 8 h
Tmax, plasma (iv, 25 mg/kg): 2 h
OQTQ metabolite in urine (sc): high level
Reduction of the Cmax of TQ in blood (sc): over 75%
Reduction of the blood AUC over 14 days (sc): more than 50%
AUC, liver (sc, 10 mg/kg): 2422 μg/g liver*hour
AUC, plasma (sc, 10 mg/kg): 9.617 μg/ml plasma* hour
CTQ metabolite in plasma (sc, 10 mg/kg): absence
Cmax, liver (sc, 10 mg/kg): 25 μg/g liver
Cmax, plasma (sc, 10 mg/kg): 0.10 μg/ml plasma
Liver:plasma AUC ratio (sc, 10 mg/kg): 252
OQTQ metabolite in plasma (sc, 10 mg/kg): low
Tmax, liver (sc, 10 mg/kg): 8 h
Tmax, plasma (sc, 10 mg/kg): 24 h
